The values below come from patent publication US9879306B2, “Luciferase biosensors for cAMP” (PROMEGA CORPORATION, priority 2008, dated 2018).

Substitutions are numbered along the chain they refer to. Names and notes keep the numbering of the source.

The labels stand for the following.
B1: 16A2: 7A1 biosensor with F518L in Luc2.0; SEQ ID NO:60, 61 (protein)
chain: MPGAVGKVVPFFEAKVVDLDTGKTLGVNQRGELCVRGPMIMSGYVNNPEATNALIDKDGWLHSGDIAYWDEDEHFFIVDRLKSLIKYKGYQVAPAELESILLQHPNIFDAGVAGLPDDDAGELPAAVVVLEHGKTMTEKEIVDYVASQVTTAKKLRGGVVLVDEVPKGLTGKLDARKIREILIKAKKGSNWDSGCSREGMYESFIESLPFLKSLEFSARLKVVDVIGTKVYNDGEQIIAQGDSADSFFIIESGEVKITMKRKGKSEVEENGAVEIARCSRGQYFGELALVTNKPRAASAHAIGTVKCLAMDVQAFERLLGPCMEIMKRNIATYEEQLVALFGTNMDIVAKNIKKGPAPFYPLEDGTAGEQLHKAMKRYALVPGTIAFTDAHIEVDITYAEYFEMSVRLAEAMKRYGLNTNHRIVVCSENSLQFFMPVLGALFIGVAVAPANDIYNERELLNSMGISQPTVVFVSKKGLQKILNVQKKLPIIQKIIIMDSKTDYQGFQSMYTFVTSHLPPGFNEYDFVPESFDRDKTIALIMNSSGSTGLPKGVALPHRTACVRFSHARDPIFGNQIIPDTAILSVVPFHHGFGMFTTLGYLICGFRVVLMYRFEEELFLRSLQDYKIQSALLVPTLFSFFAKSTLIDKYDLSNLHEIASGGAPLSKEVGEAVAKRFHLPGIRQGYGLTETTSAILITPEGV
B2: GS358: parent cAMP biosensor Met-(FF luc 359-544)-GSSGGSGGSGGG-(RIIβB)-(FFluc4-355)-Val; SEQ ID NO:111, 112 (protein)
chain: B1 chain with L161F, N190S, W191G, D192G, C195G, R197G, E198G, A218E, I250V
B3: 7A1-LQ: 7A1 background with Luc2.0 F518L, K541Q; SEQ ID NO:64, 65 (protein)
chain: B1 chain with K184Q
B4: 7A1-LY: 7A1 background with Luc2.0 F518L and RIIβB F407Y; SEQ ID NO:25, 26 (protein)
chain: B1 chain with F341Y
B5: 7A1-ILY: 7A1 background with Luc2.0 F369I, F518L and RIIβB F407Y; SEQ ID NO:27, 28 (protein)
chain: B1 chain with F12I, F210I, F248Y, F341Y, F359L
B6: 7A1-QY: 7A1 background with Luc2.0 K541Q and RIIβB F407Y; SEQ ID NO:109, 110 (protein)
chain: B1 chain with L161F, K184Q, F341Y
B7: 7A1-I: 7A1 background with Luc2.0 F369I; SEQ ID NO:66, 67 (protein)
chain: B1 chain with F12I, L161F
B8: 7A1-ILQY: 7A1 background with Luc2.0 F369I, F518L, K541Q and RIIβB F407Y; SEQ ID NO:31, 32 (protein)
chain: B1 chain with F12I, K184Q, F341Y
B9: 7A1-IY: 7A1 background with Luc2.0 F369I and RIIβB F407Y; SEQ ID NO:39, 40 (protein)
chain: B1 chain with F12I, L161F, F341Y
B10: 7A1-LQY: 7A1 background with Luc2.0 F518L, K541Q and RIIβB F407Y; SEQ ID NO:58, 59 (protein)
chain: B1 chain with K184Q, F341Y

One test deals with HEK293 cells. In words: Luminescence and fold response of biosensor clones in HEK293 cells after isoproterenol or FSK. It is filed as cell-based. The note with it: 5 minutes after isoproterenol. As to the method:
B. HEK293 cells were transiently transfected with plasmid DNAs encoding various biosensor mutants as above. These biosensor mutants contained the E284A and V316I mutation in the RIIbetaB cAMP binding domain and the modified linker sequence 7A1 (GSNWDSGCSREG; SEQ ID NO: 129). The clones also contained the additional mutations outlined in Table 5. Cells were equilibrated for 2 hours at room temperature with 2 mM EF-Luc. Luminescence was measured 5 and 15 minutes after addition of the isoproterenol and 15 minutes after addition of FSK. Fold response (response; Resp.) was calculated by dividing relative light units (RLUs) from induced cells by the RLUs from uninduced cells. As a control, the biosensor GS358 and 7A1 were included.
For the molecule B1, the “Isoproterenol-5 minutes Induced” value is given as 44890 RLU.
With B2, the “Isoproterenol-5 minutes Induced” value worked out at 41610 RLU.

The test is the same for the next values; noted with them: 15 minutes after FSK.
As to B1, the “Forskolin (FSK) Induced” value came out at 153670 RLU.
The same measure, in the same setting: with B2 the figure was 195335 RLU.

Still in this test, the particulars now being: 15 minutes after isoproterenol.
On to B1, for which the “Isoproterenol-15 minutes Induced” value was found to be 141135 RLU.
On to B2, for which the “Isoproterenol-15 minutes Induced” value is 184150 RLU.

The same test, now with this note: RLU induced / RLU uninduced, 5 minutes after isoproterenol.
Take B1: the “Isoproterenol-5 minutes Resp” value is recorded as 85 fold.
In the case of B2, the “Isoproterenol-5 minutes Resp” value is 8 fold.

The same test, now with this note: RLU induced / RLU uninduced, 15 minutes after FSK.
As for B1, the “Forskolin (FSK) Resp” value was found to be 76 fold.
The same measure, in the same setting: next, B2: 13 fold.

Still in this test, the particulars now being: RLU induced / RLU uninduced, 15 minutes after isoproterenol.
For the molecule B1, the “Isoproterenol-15 minutes Resp” value was 70 fold.
As for B2, the “Isoproterenol-15 minutes Resp” value is given as 12 fold.

Staying with this test, now noted: uninduced cells, 5 minutes.
As to B1, the “Isoproterenol-5 minutes Uninduced” value is recorded as 527 RLU.
Regarding B2, the “Isoproterenol-5 minutes Uninduced” value turned out to be 4943 RLU.

Staying with this test, now noted: uninduced cells, 15 minutes.
Turning to B1, the “Forskolin (FSK) Uninduced” value turned out to be 2025 RLU and the “Isoproterenol-15 minutes Uninduced” value is recorded as 2025 RLU.
For the molecule B2, the “Forskolin (FSK) Uninduced” value was 14895 RLU and the “Isoproterenol-15 minutes Uninduced” value was found to be 14895 RLU.

A further test deals with T1, dopamine D2 receptor (Homo sapiens, UniProt P14416).
T1 construct: expressed in transfected cells
T1 sequence (P14416 whole entry, species assumed): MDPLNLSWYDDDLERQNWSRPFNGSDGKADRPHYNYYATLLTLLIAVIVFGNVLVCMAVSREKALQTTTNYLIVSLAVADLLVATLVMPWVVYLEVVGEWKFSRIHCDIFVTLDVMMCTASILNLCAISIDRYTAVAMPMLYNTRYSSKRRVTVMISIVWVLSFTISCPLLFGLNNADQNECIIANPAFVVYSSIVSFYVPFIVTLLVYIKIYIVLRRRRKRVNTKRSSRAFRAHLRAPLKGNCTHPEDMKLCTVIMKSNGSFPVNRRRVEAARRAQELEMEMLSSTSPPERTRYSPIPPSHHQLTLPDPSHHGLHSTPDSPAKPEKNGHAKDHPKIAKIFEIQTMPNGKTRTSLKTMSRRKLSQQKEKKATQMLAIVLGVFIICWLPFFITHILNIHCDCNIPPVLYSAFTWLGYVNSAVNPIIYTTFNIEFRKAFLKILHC
In words: Forskolin, dopamine and haloperidol responses of biosensor clones in HEK293 cells stably expressing the dopamine D2 receptor. It is filed as cell-based. As to conditions: 3 μM FSK + 0.3 μM dopamine, 10 minutes. The text has this:
To measure changes in the intracellular concentration of cAMP, HEK293 cells are transiently transfected with mutant cAMP biosensors followed by treatment with compounds known to increase or decrease the intracellular cAMP concentration through GPCR activation of Gs- or Gi-coupled receptors, respectively.
HEK293 cells stably expressing the dopamine D2 receptor were transiently transfected with the mutant cAMP biosensors from Example VIIB. Cells were also transfected with either 7A1 (Example III) or GS358 (parent biosensor) as controls. Cells were equilibrated for 2 hours at room temperature using 2 mM EF-luc. Antagonist assay wells were pre-treated for 10-15 minutes at room temperature with 10 μM Haloperidol (Halo). Next, the following reagents were added to their respective wells: media alone to “untreated” samples; 3 μM forskolin (FSK) to “forskolin-treated” samples; 3 μM FSK+0.3 μM dopamine to “agonist-treated” samples; and 3 μM FSK+0.3 μM dopamine to the aforementioned wells pre-treated with Halo. The cells were then incubated at room temperature for 10 minutes and luminescence was measured. Fold response for FSK was calculated by dividing the RLU from “forskolin-treated” cells by the RLU from the “untreated” cells. Fold response for dopamine treatment was calculated by dividing the RLU from the “agonist-treated” cells by the RLU from the “forskolin-treated” cells. Fold response for Haloperidol treatment was calculated by dividing the RLU from the cells treated with haloperidol then forskolin plus dopamine by the RLU of cells treated with forskolin plus dopamine alone.
On to B1, for which the “Dopamine Induced” value came to 95 RLU.
As for B2, the “Dopamine Induced” value was 5153 RLU.

The test is the same for the next values; noted with them: 3 μM FSK, 10 minutes.
In the case of B1, the “Forskolin (FSK) Induced” value is 4117 RLU.
Regarding B2, the “Forskolin (FSK) Induced” value stood at 9166 RLU.

The same test, now with this note: 10 μM Haloperidol pre-treatment, then 3 μM FSK + 0.3 μM dopamine.
Consider B1, for which the “Halo Induced” value worked out at 223 RLU.
Consider B2, for which the “Halo Induced” value was 9218 RLU.

The test is the same for the next values; noted with them: RLU agonist-treated / forskolin-treated.
For the molecule B1, the “Dopamine Response” value turned out to be 0.33 fold.
As to B2, the “Dopamine Response” value was found to be 0.56 fold.

Staying with this test, now noted: RLU forskolin-treated / untreated.
On to B1, for which the “Forskolin (FSK) Response” value is recorded as 28 fold.
On the same count and under the same terms, with B2 the figure was 5 fold.

Staying with this test, now noted: RLU haloperidol then FSK + dopamine / FSK + dopamine alone.
With B1, the “Halo Response” value is 2.3 fold.
As for B2, the “Halo Response” value was 1.9 fold.

Still in this test, the particulars now being: untreated (media alone), 10 minutes.
For B1, the “Forskolin (FSK) Uninduced” value is 147 RLU.
On the same count and under the same terms, with B2 the figure was 1704 RLU.

The target of a further test is T2, GPR41 (Homo sapiens, UniProt O14843).
T2 sequence (O14843 1-346): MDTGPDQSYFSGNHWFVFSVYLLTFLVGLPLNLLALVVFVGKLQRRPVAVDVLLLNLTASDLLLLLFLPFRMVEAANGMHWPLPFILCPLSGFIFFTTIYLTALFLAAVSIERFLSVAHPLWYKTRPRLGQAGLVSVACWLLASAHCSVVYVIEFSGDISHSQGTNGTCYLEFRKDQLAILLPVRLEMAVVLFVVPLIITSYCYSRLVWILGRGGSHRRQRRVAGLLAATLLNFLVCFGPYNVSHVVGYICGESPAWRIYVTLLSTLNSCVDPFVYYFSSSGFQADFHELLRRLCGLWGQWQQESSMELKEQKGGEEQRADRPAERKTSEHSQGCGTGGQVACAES
In words: Sodium proprionate CRC with biosensor variants in HEK293 cells stably expressing GPR41. The test is classed as cell-based. The note with it: with FSK 1 μM. Here is the method: (§1) After 24 hours, the cells were transiently transfected with one of the cAMP biosensor variants (Tables 7A and 7B). After another 24 hours, the cells were equilibrated for 2 hours at room temperature using 5 mM EF-luc in CO2 independent media with 10% FBS. Prior to the addition of the compounds, luminescence was measured. The compounds (12× stock in CO2 independent media without FBS) were then added to the cells. For GPR41 expressing cells, sodium proprionate CRC was added. […] The cells were allowed to incubate another 30 minutes and luminescence read on a Varioskan Flash. EC50 values and fold responses were calculated for each of the clones with each of the compounds with or without FSK. In addition, variants […]7 (Example VIIB), 16A2 (Example VIIB) and GS358 were also screened.
With B1, the “Fold Response Na proprionate + FSK(1 μM)” value amounted to 3.76 fold.
Consider B3, for which the “Fold Response Na proprionate + FSK(1 μM)” value came to 6.6 fold.
Same read-out and setting: next, B4: 62.19 fold.
The same measure, in the same setting: with B5 the figure was 8.96 fold; with B6, 161.29 fold; with B7, 6.60 fold.
As for B8, the “Fold Response Na proprionate + FSK(1 μM)” value is given as 8.13 fold.
As to B2, the “Fold Response Na proprionate + FSK(1 μM)” value is listed as 3.19 (n = 7) fold.
In the case of B9, the “Fold Response Na proprionate + FSK(1 μM)” value turned out to be 8.66 fold.

The same test, now with this note: without FSK, ratio of induced to uninduced signal.
Turning to B1, the “Fold Response Na proprionate” value was 2.73 fold.
As for B3, the “Fold Response Na proprionate” value stood at 2.70 fold.
On to B4, for which the “Fold Response Na proprionate” value is given as 2.15 fold.
On to B10, for which the “Fold Response Na proprionate” value is listed as 1.94 fold.
Same read-out and setting: next, B5: 2.49 fold.
Consider B6, for which the “Fold Response Na proprionate” value was determined as 1.68 fold.
For B7, the “Fold Response Na proprionate” value was determined as 3.07 fold.
Consider B8, for which the “Fold Response Na proprionate” value came out at 2.57 fold.
On the same count and under the same terms, next, B2: 2.56 (n = 8) fold; B9: 2.81 fold.

Another test deals with GPR41. The test is described as above. The test is classed as cell-based. The note with it: ratio of RLU of FSK treated well to untreated well. Here is the method: as §1
Consider B1, for which the “Fold Signal Change” value is recorded as 89.7 fold.
In the case of B3, the “Fold Signal Change” value is 85.2 fold.
Regarding B4, the “Fold Signal Change” value is 141.7 fold.
As for B10, the “Fold Signal Change” value is 153.1 fold.
Consider B5, for which the “Fold Signal Change” value is 194.6 fold.
With B6, the “Fold Signal Change” value was found to be 87.6 fold.
For B7, the “Fold Signal Change” value amounted to 133.9 fold.
As to B8, the “Fold Signal Change” value stood at 220.1 fold.
On the same count and under the same terms, next, B2: 9.48 (n = 8) fold; B9: 165.7 fold.
